Results: patent US11613587B2, “Combination therapy of T cell activating bispecific antigen binding molecules and PD-1 axis binding antagonists” (Hoffmann-La Roche Inc., priority 2014, dated 2023)

B1: 36F2: anti-FolR1 clone from generic multi-framework Fab library (Vk_3_20/VH_1_46) (antibody, V domains shown)
VH: QVQLVQSGAEVKKPGASVKVSCKASGYTFTSYYMHWVRQAPGQGLEWMGIINPSGGSTSYAQKFQGRVTMTHDTSTSTVYMELSSLRSEDTAVYYCARSFFTGFHLDYWGQGTLVTVSS
VL: EIVLTQSPGTLSLSPGERATLSCRASQSVSSSYLAWYQQKPGQAPRLLIYGASSRATGIPDRFSGSGSGTDFTLTISRLEPEDFAVYYCQQYTNEHYYTFGQGTKVEIK
B2: Mov19: reference human FolR1 binder, control IgG (antibody, V domains shown)
VH: QVQLQQSGAELVKPGASVKISCKASGYSFTGYFMNWVKQSHGKSLEWIGRIHPYDGDTFYNQNFKDKATLTVDKSSNTAHMELLSLTSEDFAVYYCTRYDGSRAMDYWGQGTTVTVSS
VL: DIELTQSPASLAVSLGQRAIISCKASQSVSFAGTSLMHWYHQKPGQQPKLLIYRASNLEAGVPTRFSGSGSKTDFTLNIHPVEEEDAATYYCQQSREYPYTFGGGTKLEIK

How the values were obtained:
huFolR1-Fc = test: Epitope binning (SPR); assay type: binding, human; settings: 500 nM huFolR1-Fc, 500 nM binder
Method: 500 nM huFolR1-Fc was then captured for 60 s, followed by 500 nM of the different binders for 30 s. The surface was regenerated with two injections of 10 mM glycine pH 2 for 30 s each.

[1] = system: HEK cells transiently transfected with cyno FolR1; test: Cross-reactivity to cyno FolR1 on transfected HEK cells (flow cytometry); assay type: binding, cynomolgus; settings: IgG
Source text: FIGS. 4A-B depict graphs summarizing cross-reactivity of FolR1 binders to cyFoLR1. Cross-reactivity of the FolR1 antibodies to cyno FolR1 was addressed on HEK cells transiently transfected with cyFolR1 by flow cytometry.
New FolR1 binders were generated via Phage Display using either a Fab library or a common light chain library using the CD3 light chain. The identified binders were converted into a human IgG1 format and binding to FolR1 high expressing HeLa cells was addressed. As reference molecule the human FolR1 binder Mov19 was included. […] In a next step the selected clones were tested for specificity to human FolR1 by excluding binding to the closely related human FolR2. HEK cells were transiently transfected with either human FolR1 or human FolR2 to address specificity. […] Therefore these clones were excluded from further characterization. In parallel cross-reactivity of the FolR1 clones to cyno FolR1 was addressed by performing binding studies to HEK cells transiently transfected with cyno FolR1. […] Subsequently three human FolR1 specific cyno cross-reactive binders were converted into TCB format and tested for induction of T cell killing and T cell activation. […] As reference molecule Mov19 FolR1 TCB was included in all studies. These FolR1 TCBs were then used to compare induction of internalization after binding to FolR1 on HeLa cells.

human FolR1 = target: T1, human FolR1 (Homo sapiens, UniProt P15328); test: SPR single injections of anti-FolR1 IgGs (Biacore T200); assay type: binding
T1 construct: the extracellular domain of the antigen linked to the hinge region of Fc-knob which is co-expressed with an Fc-hole molecule; made in house; host or cells: HEK293 EBNA
Source text: The immobilization level was about 300-400 RU.

[2] = system: erythrocytes (CD235a positive); test: Binding to erythrocytes (flow cytometry); parameters: species or system human

Molecule | binding of analyte in solution to huFolR1 captured on immobilized 16D5 TCB (huFolR1-Fc) | binding of analyte in solution to huFolR1 captured on immobilized 21A5 TCB (huFolR1-Fc) | binding of analyte in solution to huFolR1 captured on immobilized Mov19 IgG (huFolR1-Fc) | binding to cyno FolR1 [1] | dissociation from huFolR1 (human FolR1) | binding to erythrocytes [2]
B1 | + (+means binding) | + (+means binding) | − | bind comparably well human and cyno FoLR1 | dissociated rapidly from huFolR1 | 
B2 | + (+means binding) | + (+means binding) | − |  |  | could not observe any specific binding
